Results taken from the supplement of paper PMC10724198.
± gives the standard deviation of the averaged measurements.

Test system: Saccharomyces cerevisiae
Experiment: protein stability index of tFT-peptide fusion (C-terminal peptide) (PSI (0-1 scale)); higher = more stable (slower turnover)
Conditions: genetic background: wild type; temperature: 30 C
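Note: PSI is a weighted mean of sequencing reads over stability bins, variants kept only with over 10 reads, mCherry proximal and sfGFP distal, peptide attached via GGGS linker.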

Sequence	protein stability index
REAGGSQVKRRL	0.671 ± 0.12
REDSGGVNWGRC	0.692 ± 0.039
REEMASGGCIIR	0.6845 ± 0.0039
REERSRQSLVKW	0.675 ± 0.06
REGYGVGRERGD	0.649 ± 0.017
REKEKMRVVGMT	0.746 ± 0.036
REKKDGKLSTTR	0.761 ± 0.045
REKKDKKNSKKI	0.701 ± 0.022
REMKGKLHEHRK	0.6792 ± 0.0029
RETGTSVEQVRT	0.68 ± 0.036
RETPPALRSFPV	0.613 ± 0.26
REVLYCTSMLQD	0.707 ± 0.038
REVSGLTIRMVR	0.659 ± 0.03
REWCSGGPCAAS	0.721 ± 0.043
REYGVKRIEIKQ	0.682 ± 0.04
RFAEEDFIVERT	0.727 ± 0.019
RFAGCFSFFRAA	0.683 ± 0.035
RFALSCITPCIL	0.661 ± 0.069
RFAWLPAPGRIV	0.647 ± 0.015
RFCIARGSLLDY	0.554 ± 0.025
RFCVTASDLREF	0.751 ± 0.057
RFDFSVTPHLGF	0.668 ± 0.036
RFEFFHLVSWLL	0.644 ± 0.052
RFGRGAGGGLGG	0.6763 ± 0.0013
RFGSFVSISRVG	0.603 ± 0.14
RFGWRRGRVGSS	0.734 ± 0.038

Sequence	protein stability index
RFLPALSRSLPS	0.782 ± 0.11
RFPFSFSGFFLL	0.5532 ± 0.0033
RFPPFSFAPCLI	0.712 ± 0.035
RFPPWVSSIFAF	0.494 ± 0.0082
RFPSSCAPLSPY	0.621 ± 0.029
RFPVLRFPASFL	0.669 ± 0.048
RGAGRTHCLRAP	0.6613 ± 0.0055
RGAHPCLDLRSE	0.654 ± 0.067
RGAPLSPPPPRS	0.714 ± 0.13
RGARVGKGDACW	0.607 ± 0.069
RGCRVMATGVGV	0.651 ± 0.022
RGCSGGVVDWIG	0.679 ± 0.017
RGEARDARGLEW	0.763 ± 0.12
RGEVGKVRGPGT	0.71 ± 0.052
RGFKEPLSFKAG	0.613 ± 0.059
RGGASGPFVWAG	0.71 ± 0.057
RGGEGVWVVGRV	0.703 ± 0.075
RGGERAGETAGQ	0.695 ± 0.053
RGGFVEGFVLVR	0.611 ± 0.073
RGGGPTGARPAM	0.711 ± 0.1
RGGGQVLGARVG	0.634 ± 0.017
RGGGWGRKVSVG	0.659 ± 0.095
RGGPSPAASSRG	0.725 ± 0.057
RGGRGGPGWVAG	0.681 ± 0.025
RGHKATNICHSV	0.721 ± 0.042
RGIILSSSGFVW	0.735 ± 0.012

Sequence	protein stability index
RGKRGRRGDEAG	0.712 ± 0.093
RGLVRLIRGGYN	0.698 ± 0.18
RGMGPGAFVSGQ	0.677 ± 0.077
RGPAFAQPLPFL	0.738 ± 0.034
RGPELDRRLPLC	0.663 ± 0.03
RGPGKKQIISQK	0.741 ± 0.02
RGPGSNGSLPWF	0.689 ± 0.056
RGRAGTRGVVEK	0.71 ± 0.024
RGRAPLRRPPGP	0.717 ± 0.048
RGRAVGVGGGGV	0.626 ± 0.027
RGRCLGAESRGG	0.767 ± 0.069
RGRKEQSKKKKE	0.647 ± 0.13
RGRLCRESGSRS	0.711 ± 0.033
RGRMGLGSPGGG	0.639 ± 0.06
RGRRRAADRSLR	0.749 ± 0.14
RGRSLPIPHTFP	0.714 ± 0.085
RGSTLPRRVRLK	0.641 ± 0.042
RGSVDGTLQKPG	0.6691 ± 0.00087
RGSWSDEFWREG	0.84 ± 0.056
RGTVPHSLDLYL	0.679 ± 0.025
RGVETGRGREKE	0.643 ± 0.046
RGVRLGPSVVVG	0.696 ± 0.051
RHLALSRPTPFP	0.703 ± 0.04
RHLSRSVSKVLR	0.629 ± 0.06
RHPTHPVSSLNP	0.777 ± 0.05
RHSCLRFPPLHL	0.694 ± 0.1

Sequence	protein stability index
RHSHSLSITHLP	0.675 ± 0.091
RHYKNKGQTRVR	0.699 ± 0.051
RIEEQMIKNEWE	0.6932 ± 0.0047
RIGELRYATQMK	0.676 ± 0.052
RILLIRRKEKYL	0.5578 ± 0.0028
RILPSPVSAGGF	0.62 ± 0.026
RINKIKRKKRIK	0.618 ± 0.062
RIPIGDSHIALK	0.692 ± 0.1
RIRGGVLYKGVG	0.666 ± 0.016
RIRLNHAMSTVV	0.625 ± 0.019
RIRRITAGRQRY	0.793 ± 0.067
RIRVKSLAPSPS	0.74 ± 0.17
RITWRSKKGLVI	0.71 ± 0.031
RKAPLLFSLSHK	0.6761 ± 0.0031
RKATGVLQVQDY	0.749 ± 0.14
RKEEEGNYWNRI	0.651 ± 0.02
RKEKNRKEKSIQ	0.668 ± 0.013
RKFGQRQKRECN	0.7085 ± 0.0066
RKGKARKKQKRI	0.721 ± 0.1
RKICVEDIKESI	0.669 ± 0.013
RKIIIINLQKIK	0.586 ± 0.024
RKIQNASLGRGA	0.7 ± 0.037
RKISLNSPPRES	0.757 ± 0.1
RKKHSHKKAKKK	0.702 ± 0.014
RKKKNQKHKKKN	0.705 ± 0.026
RKKKSNLMDDDD	0.696 ± 0.031

Sequence	protein stability index
RKKRERIREKKN	0.494 ± 0.043
RKKRNKQENETK	0.748 ± 0.013
RKKRNKTKIEKR	0.719 ± 0.021
RKKVRKTKKIKK	0.628 ± 0.089
RKLDRDLTPESF	0.666 ± 0.048
RKNEKKKKKNKK	0.6645 ± 0.0024
RKNNKKKENKKK	0.7954 ± 0.0014
RKNQGKKREPRA	0.653 ± 0.079
RKSSAGLERATG	0.685 ± 0.018
RKYGWSGIGCRA	0.659 ± 0.016
RLASPSIISSTL	0.702 ± 0.0076
RLCDAAVGPEGG	0.674 ± 0.05
RLETKNITRKHI	0.681 ± 0.018
RLFRRSPTPALR	0.8 ± 0.067
RLFSFPPPPTPP	0.705 ± 0.011
RLFTLVPIGPFM	0.704 ± 0.055
RLGGGGVGGAGV	0.699 ± 0.019
RLGGGGVGVAGV	0.679 ± 0.00083
RLGGRGGRLGAE	0.655 ± 0.0068
RLGLVVRPCSPP	0.6864 ± 0.0015
RLGYSWGECPGG	0.699 ± 0.012
RLKFMTGLFLWS	0.73 ± 0.019
RLKGSPHPVFLY	0.753 ± 0.055
RLLGRPFRHERG	0.698 ± 0.043
RLLKRAVRKIFT	0.61808 ± 0.00049
RLPAPPTVPLPP	0.6 ± 0.042

Sequence	protein stability index
RLPPALRRNAPP	0.665 ± 0.18
RLPSLTGLELFS	0.685 ± 0.025
RLPTRRSALMGL	0.738 ± 0.043
RLPVPAAFSSSI	0.79 ± 0.047
RLRPRRNMIDHA	0.724 ± 0.057
RLRRCPWLRAWR	0.7086 ± 0.005
RLSGRRLVNYRP	0.641 ± 0.036
RLSGWGLGVWQE	0.681 ± 0.042
RLSIEVREWGDG	0.642 ± 0.075
RLSSLSSPPPAF	0.693 ± 0.07
RLSSVPSRSLPA	0.733 ± 0.096
RLSVRPGPLRLL	0.68 ± 0.025
RLVFSSCLNALF	0.724 ± 0.073
RLVLTHVSRCWQ	0.673 ± 0.065
RLVRSPSRFSWR	0.667 ± 0.031
RLYGILLLSGKE	0.683 ± 0.019
RMLVNKLSAFFI	0.64 ± 0.053
RMSLGLHGVMRC	0.683 ± 0.045
RNCELQSLSSTL	0.732 ± 0.036
RNDAARLLGESG	0.698 ± 0.018
RNGFGSWFRWKM	0.7014 ± 0.0069
RNGGSTWPLLGA	0.721 ± 0.017
RNILMFSNGVDE	0.681 ± 0.014
RNLRFEVLAVVI	0.5272 ± 0.0049
RNPYNTNTVSNI	0.732 ± 0.08
RNRKQEKKENKN	0.695 ± 0.022

Sequence	protein stability index
RNRNKKIIREKK	0.7 ± 0.033
RNSVGGHENWNQ	0.703 ± 0.11
RPAASTKWAVQP	0.6923 ± 0.0021
RPAVSCYTGGDH	0.7083 ± 0.0056
RPDRPSGLLPRP	0.701 ± 0.039
RPFHLLPPPPPL	0.73 ± 0.019
RPFLVGRISFSS	0.693 ± 0.046
RPFPLPPRPSPP	0.673 ± 0.13
RPGSMWAQGGVG	0.566 ± 0.0078
RPISPIAVGSVV	0.6747 ± 0.0013
RPLAVPPRPSPV	0.729 ± 0.049
RPLLIYSPFPLF	0.662 ± 0.075
RPLNLPPPPAPF	0.659 ± 0.072
RPLPPLPRPPSP	0.557 ± 0.02
RPPFSPPSDLPL	0.645 ± 0.025
RPPGQVSEALEW	0.68961 ± 3.4e-05
RPPHSNPPRLVI	0.711 ± 0.045
RPPLLSPTRTLP	0.707 ± 0.15
RPPPHLTPRVSL	0.689 ± 0.047
RPPPHYPHHTAS	0.673 ± 0.018
RPPPPPPPSPHL	0.692 ± 0.041
RPPPPRLTPPRL	0.756 ± 0.084
RPPSLSPAPAPP	0.73 ± 0.027
RPPVGTPPLPHS	0.66 ± 0.0091
RPQARAQRRQAC	0.583 ± 0.034
RPRKTVTDLMAG	0.663 ± 0.01

Sequence	protein stability index
RPRNRRGGRGDE	0.672 ± 0.0062
RPSLPPRSPPPS	0.767 ± 0.069
RPSPMPTATPAT	0.701 ± 0.029
RPSPPPTPPGPH	0.656 ± 0.039
RPSPVLRASHPP	0.638 ± 0.0099
RPSRPPPRLLFA	0.644 ± 0.03
RPTPSHRTPSIG	0.723 ± 0.016
RPVQRLVPLTPR	0.706 ± 0.054
RPVRLLPCVCHF	0.679 ± 0.017
RQANQVSTSAEN	0.726 ± 0.11
RQLPMHLTSPGT	0.66 ± 0.021
RQSDPFCCSTHP	0.7449 ± 0.0023
RQTTTPHDRDGR	0.566 ± 0.049
RQVERRARRDRV	0.671 ± 0.055
RRAPASAFPHSP	0.688 ± 0.06
RRAPRQKLIPAK	0.6768 ± 0.0055
RRDRFSLRGFTE	0.701 ± 0.013
RREASLGSYSFE	0.69778 ± 0.00039
RREDWQEKRYGL	0.761 ± 0.083
RRERRKKTETDK	0.7348 ± 0.0073
